Experimental data published in article PMC6249382, “The Maize Sulfite Reductase Is Involved in Cold and Oxidative Stress Responses” (Frontiers in Plant Science, 2018).

Substrate: O=S(O)O
Assay: steady-state kinetics, Lineweaver-Burk plot
Assay type: biochemical, Zea mays
Settings: 400 μM NADPH as electron donor (printed "electron acceptor"); sulfite 2.5-400 μM; 1.0 μg enzyme

B1: ZmSiR (Zea mays) (protein)
chain: MSGAIGGAEVHGFRGAAAQLPRSRVLGRPIRVAPPAAARPGGASAGSIRAVSAPAKKDASEVKRSKVEIIKEKSNFLRYPLNEELVSEAPNINESAVQLIKFHGSYQQTDRDVRGQKNYSFMLRTKNPCGKVPNQLYLAMDTLADEFGIGTLRLTTRQTFQLHGVLKKNLKTVLSTVIKNMGSTLGACGDLNRNVLAPAAPYVKKDILFAQQTAENIAALLTPQSGAYYDLWVDGEKIMSAEEPPEVTKARNDNSHGTNFPDSPEPIYGTQYLPRKFKVAVTAAGDNSVDILTNDIGVVVVSDDAGEPIGFNIYVGGGMGRTHRVETTFPRLADPLGYVPKEDILYAIKAIVVTQRENGRRDDRKYSRMKYMIDRWGIDRFRAEVEKYYGKKFESFRPLPEWQFNSYLGWQEQGDGKLFYGVHVDNGRVGGQAKKTLREIIEKYNLDVSITPNQNLILCGIDQAWREPITTALAQAGLLEPKDVDPLNLTAMACPALPLCPLAQTEAERGILPILKRIRAVFNKVGIKDSESVVVRITGCPNGCARPYMAELGFVGDGPKSYQIWLGGTPNQSTLAESFMDKVKLDDIEKVLEPLFTYWNGTRQEGESFGSFTNRTGFDKLKEVVNKWAESPSAA
- Km: 5.32 ± 0.26 µM
